Legend:
FL-RAD52 = target: T1, FL-RAD52 (Homo sapiens, UniProt P43351 1-418); test: fluorescence polarization; apparent Kd; 10 nM DNA; FP: 25 mM Tris-HCl pH 7.5, 62.5 mM NaCl, 5% glycerol, 1 mM DTT, room temperature, 15 min; details: protein: recombinant; tags: His-tag (pET15b); label: 5'-6-FAM; single strand
T1 sequence: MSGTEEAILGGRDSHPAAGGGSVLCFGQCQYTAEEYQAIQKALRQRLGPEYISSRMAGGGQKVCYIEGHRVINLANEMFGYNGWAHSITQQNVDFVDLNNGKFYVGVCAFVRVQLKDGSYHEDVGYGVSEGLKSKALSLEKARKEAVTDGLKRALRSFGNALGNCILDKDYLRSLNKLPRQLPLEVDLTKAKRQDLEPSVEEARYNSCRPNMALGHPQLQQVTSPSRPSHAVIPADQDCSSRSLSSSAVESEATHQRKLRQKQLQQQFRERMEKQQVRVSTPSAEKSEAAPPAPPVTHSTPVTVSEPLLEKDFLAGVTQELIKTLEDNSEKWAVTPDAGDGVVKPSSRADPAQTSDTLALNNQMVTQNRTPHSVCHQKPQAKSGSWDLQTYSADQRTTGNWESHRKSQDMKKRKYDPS

[1] = target: the molecule itself; test: MST; apparent; RED-NHS labelled FL-RAD52 constant at 10 nM, unlabelled FL-RAD52 0.7 nM-25 μM; 25 °C; 25 mM Hepes pH 7.5, 5% glycerol, 250 mM NaCl, 0.05% Tween 20; step of self-association not stated

B1: dT30 ssDNA (ssDNA)
DNA: TTTTTTTTTTTTTTTTTTTTTTTTTTTTTT
Kd (FL-RAD52): 0.0372 ± 0.0004 µM

B2: Human full-length RAD52 (FL-RAD52), 6xHis-tagged (natural protein, UniProt P43351 1-418, looked up)
chain: T1 sequence
notes: Human RAD52, full length, 418 amino acids (47 kDa); expression vector pET15b (Addgene, number not given); In the MST experiment the copy held at constant concentration was labelled with RED-NHS (amine dye NT-647-NHS); No tag cleavage is described; the SAXS deposit is named 'His-Tagged full-length'; also called DNA repair protein RAD52 homolog; source: E. coli BL21 (DE3) Rosetta pLysS, purified …
Kd [1]: 13 µM

Source: PMC11306251, “An integrative structural study of the human full-length RAD52 at 2.2 Å resolution” (Communications Biology, 2024)
